Laboratory results as given in PMC6165198.

Columns and labels:
[1] = target: fused glucose-6-phosphate dehydrogenase::6-phosphogluconolactonase (G6PD::6PGL) protein from Giardia lamblia (Giardia lamblia)
[2] = target: fused glucose-6-phosphate dehydrogenase::6-phosphogluconolactonase (G6PD::6PGL) protein from Giardia lamblia (Giardia lamblia); experiment: SEC; Shodex Protein KW-802.5 column, 50 mM Tris buffer pH 8.75, protein incubated 2 h at 37 °C with either 0.45 M or no Gdn-HCl, flow 0.5 mL/min, calibrated with Bio-Rad standards
[3] = target: fused glucose-6-phosphate dehydrogenase::6-phosphogluconolactonase (G6PD::6PGL) protein from Giardia lamblia (Giardia lamblia); experiment: SEC; Sephacryl 100 (16/60) gel filtration column, 50 mM Tris buffer pH 7.85, flow 0.5 mL/min, calibrated with Bio-Rad gel filtration standards; oligomeric state from the elution volume

Substance: fused glucose-6-phosphate dehydrogenase::6-phosphogluconolactonase (G6PD::6PGL) protein from Giardia lamblia (enzyme)
- residual G6PD activity after incubation of the enzyme at 0 to 100 µg/mL for 2 h at 37 °C (stability to dilution) [1]: 100%
- stoichiometry N [2]: 2
- stoichiometry N [3]: 2
